This note sets out measurements from paper PMC4827770 (Journal of molecular recognition : JMR, 2008).

Test [1] deals with T1, murine JAM-A on L929 (L) cells (murine (endogenous in L929 cells), UniProt O88792 27-300).
T1 sequence (looked up): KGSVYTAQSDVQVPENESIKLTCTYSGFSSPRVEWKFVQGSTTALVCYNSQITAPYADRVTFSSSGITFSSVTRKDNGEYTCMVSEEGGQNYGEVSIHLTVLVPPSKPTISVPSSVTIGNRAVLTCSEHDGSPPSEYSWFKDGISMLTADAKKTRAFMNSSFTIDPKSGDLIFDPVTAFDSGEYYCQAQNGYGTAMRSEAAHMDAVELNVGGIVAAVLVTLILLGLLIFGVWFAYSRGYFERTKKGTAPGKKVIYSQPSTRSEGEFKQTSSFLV
Kind of test: single molecule force spectroscopy.

Test [2] has as its target T1, murine JAM-A on L929 (L) cells. Kind of test: single molecule force spectroscopy. This is another data set of the same source.

Like-named read-outs stand apart in the source and are kept apart here.

B1: chimeric murine JAM-A/Fc fusion protein (Fc fusion)
chain: KGSVYTAQSDVQVPENESIKLTCTYSGFSSPRVEWKFVQGSTTALVCYNSQITAPYADRVTFSSSGITFSSVTRKDNGEYTCMVSEEGGQNYGEVSIHLTVLVPPSKPTISVPSSVTIGNRAVLTCSEHDGSPPSEYSWFKDGISMLTADAKKTRAFMNSSFTIDPKSGDLIFDPVTAFDSGEYYCQAQNGYGTAMRSEAAHMDAVELNVGG
Broadly, the koff is the rate constant with which the complex falls apart. High values mean a short-lived complex, low ones a long-lived complex. Molecule B1 gave a koff in test [1] of 0.688 ± 0.349 s⁻¹.

B2: reovirus attachment protein σ1 head domain plus a short region of the tail (residues 293–455) (domain or fragment)
chain: SPNLRYPIADVSGGIGMSPNYRFRQSMWIGIVSYSGSGLNWRVQVNSDIFIVDDYIHICLPAFDGFSIADGGDLSLNFVTGLLPPLLTGDTEPAFHNDVVTYGAQTVAIGLSSGGAPQYMSKNLWVEQWQDGVLRLRVEGGGSITHSNSKWPAMTVSYPRSFT
Consider B2, for which the koff in test [2] came out at 0.067 ± 0.041 s⁻¹.
